T1: human CNTN4-10xHis (human, UniProt Q8IWV2 19-1000)
T1 sequence: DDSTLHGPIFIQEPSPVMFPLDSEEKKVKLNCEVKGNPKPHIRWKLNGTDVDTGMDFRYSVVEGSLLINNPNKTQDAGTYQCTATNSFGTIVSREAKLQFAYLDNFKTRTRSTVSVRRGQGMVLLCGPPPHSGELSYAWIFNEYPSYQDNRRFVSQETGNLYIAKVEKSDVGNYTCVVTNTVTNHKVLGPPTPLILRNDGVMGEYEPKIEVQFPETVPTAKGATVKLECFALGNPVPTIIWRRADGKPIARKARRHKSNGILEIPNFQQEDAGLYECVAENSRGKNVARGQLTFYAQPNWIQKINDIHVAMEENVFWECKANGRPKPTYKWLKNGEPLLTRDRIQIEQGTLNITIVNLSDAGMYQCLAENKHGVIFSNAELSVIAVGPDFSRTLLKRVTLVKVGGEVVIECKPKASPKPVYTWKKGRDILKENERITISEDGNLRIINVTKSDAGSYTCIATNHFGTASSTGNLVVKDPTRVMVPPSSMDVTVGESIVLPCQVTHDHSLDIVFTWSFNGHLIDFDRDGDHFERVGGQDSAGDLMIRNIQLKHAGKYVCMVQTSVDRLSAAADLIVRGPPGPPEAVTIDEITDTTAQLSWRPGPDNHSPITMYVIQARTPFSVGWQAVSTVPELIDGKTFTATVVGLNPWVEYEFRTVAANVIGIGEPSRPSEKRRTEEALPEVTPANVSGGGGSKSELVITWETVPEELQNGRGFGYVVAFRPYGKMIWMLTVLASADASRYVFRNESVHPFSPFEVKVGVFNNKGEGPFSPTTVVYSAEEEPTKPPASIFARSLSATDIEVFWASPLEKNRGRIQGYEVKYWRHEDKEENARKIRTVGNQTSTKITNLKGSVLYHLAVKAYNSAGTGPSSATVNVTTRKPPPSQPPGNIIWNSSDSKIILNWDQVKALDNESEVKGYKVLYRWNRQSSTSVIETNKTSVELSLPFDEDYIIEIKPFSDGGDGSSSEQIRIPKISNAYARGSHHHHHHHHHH

T2: mouse CNTN4-10xHis (mouse, UniProt Q69Z26 19-1000)
T2 sequence: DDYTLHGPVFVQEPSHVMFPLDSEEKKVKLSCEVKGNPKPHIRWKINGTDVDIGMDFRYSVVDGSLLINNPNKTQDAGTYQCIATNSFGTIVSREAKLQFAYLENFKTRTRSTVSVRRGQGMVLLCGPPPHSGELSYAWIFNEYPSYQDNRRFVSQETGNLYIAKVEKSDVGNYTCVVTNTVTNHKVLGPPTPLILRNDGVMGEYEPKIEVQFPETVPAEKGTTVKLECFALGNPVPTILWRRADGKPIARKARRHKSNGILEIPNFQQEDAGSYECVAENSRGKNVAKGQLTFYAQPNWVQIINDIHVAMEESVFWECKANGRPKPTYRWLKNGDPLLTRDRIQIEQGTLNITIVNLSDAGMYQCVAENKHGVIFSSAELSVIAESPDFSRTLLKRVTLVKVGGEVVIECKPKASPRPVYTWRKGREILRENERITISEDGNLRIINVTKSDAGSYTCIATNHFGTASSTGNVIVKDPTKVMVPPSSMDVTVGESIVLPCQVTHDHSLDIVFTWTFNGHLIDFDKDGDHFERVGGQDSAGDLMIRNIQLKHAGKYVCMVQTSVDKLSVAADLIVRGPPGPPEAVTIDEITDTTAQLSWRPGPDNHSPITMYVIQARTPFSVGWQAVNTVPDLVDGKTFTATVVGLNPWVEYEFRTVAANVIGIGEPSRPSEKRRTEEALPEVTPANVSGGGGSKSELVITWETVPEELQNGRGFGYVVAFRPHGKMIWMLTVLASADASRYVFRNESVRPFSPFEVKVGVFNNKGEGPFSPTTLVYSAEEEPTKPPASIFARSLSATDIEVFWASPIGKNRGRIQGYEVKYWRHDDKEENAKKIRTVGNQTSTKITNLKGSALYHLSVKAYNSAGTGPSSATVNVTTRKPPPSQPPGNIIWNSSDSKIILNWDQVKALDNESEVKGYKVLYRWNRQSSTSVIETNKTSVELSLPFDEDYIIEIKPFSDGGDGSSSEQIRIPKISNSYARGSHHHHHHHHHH

T3: human CNTN4 antigen expressed on the cell membrane of 293FT cells (human) (UniProt Q8IWV2)
T3 sequence (looked up): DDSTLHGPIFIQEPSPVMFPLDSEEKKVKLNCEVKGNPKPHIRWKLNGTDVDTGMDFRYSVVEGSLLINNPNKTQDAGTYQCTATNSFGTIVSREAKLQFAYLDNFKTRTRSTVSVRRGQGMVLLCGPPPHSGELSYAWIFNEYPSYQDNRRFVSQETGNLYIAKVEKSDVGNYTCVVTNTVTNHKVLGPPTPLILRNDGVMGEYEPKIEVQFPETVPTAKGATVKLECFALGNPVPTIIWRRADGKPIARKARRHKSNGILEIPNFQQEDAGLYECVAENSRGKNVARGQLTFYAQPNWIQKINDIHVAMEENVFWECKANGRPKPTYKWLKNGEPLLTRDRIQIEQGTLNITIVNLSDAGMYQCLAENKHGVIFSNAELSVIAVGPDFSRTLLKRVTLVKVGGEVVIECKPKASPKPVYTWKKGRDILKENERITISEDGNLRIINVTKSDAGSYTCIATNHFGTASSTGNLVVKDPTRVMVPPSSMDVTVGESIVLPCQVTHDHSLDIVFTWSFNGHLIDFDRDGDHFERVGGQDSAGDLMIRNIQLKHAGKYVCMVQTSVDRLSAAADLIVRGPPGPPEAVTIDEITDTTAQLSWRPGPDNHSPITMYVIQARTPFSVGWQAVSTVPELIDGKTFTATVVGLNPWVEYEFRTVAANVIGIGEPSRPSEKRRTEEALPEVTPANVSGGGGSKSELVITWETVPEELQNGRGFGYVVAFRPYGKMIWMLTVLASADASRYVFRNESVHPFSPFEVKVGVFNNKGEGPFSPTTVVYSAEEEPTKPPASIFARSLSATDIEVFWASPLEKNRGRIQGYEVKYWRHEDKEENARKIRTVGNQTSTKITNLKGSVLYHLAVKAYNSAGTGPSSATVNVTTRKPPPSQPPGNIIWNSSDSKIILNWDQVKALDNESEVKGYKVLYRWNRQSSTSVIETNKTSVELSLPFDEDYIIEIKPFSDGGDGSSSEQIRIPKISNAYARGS

T4: mouse CNTN4-rabbit Fc (mouse; rabbit, UniProt Q69Z26 19-1000, limits assumed)
T4 construct: not shown: rabbit Fc
T4 sequence (looked up): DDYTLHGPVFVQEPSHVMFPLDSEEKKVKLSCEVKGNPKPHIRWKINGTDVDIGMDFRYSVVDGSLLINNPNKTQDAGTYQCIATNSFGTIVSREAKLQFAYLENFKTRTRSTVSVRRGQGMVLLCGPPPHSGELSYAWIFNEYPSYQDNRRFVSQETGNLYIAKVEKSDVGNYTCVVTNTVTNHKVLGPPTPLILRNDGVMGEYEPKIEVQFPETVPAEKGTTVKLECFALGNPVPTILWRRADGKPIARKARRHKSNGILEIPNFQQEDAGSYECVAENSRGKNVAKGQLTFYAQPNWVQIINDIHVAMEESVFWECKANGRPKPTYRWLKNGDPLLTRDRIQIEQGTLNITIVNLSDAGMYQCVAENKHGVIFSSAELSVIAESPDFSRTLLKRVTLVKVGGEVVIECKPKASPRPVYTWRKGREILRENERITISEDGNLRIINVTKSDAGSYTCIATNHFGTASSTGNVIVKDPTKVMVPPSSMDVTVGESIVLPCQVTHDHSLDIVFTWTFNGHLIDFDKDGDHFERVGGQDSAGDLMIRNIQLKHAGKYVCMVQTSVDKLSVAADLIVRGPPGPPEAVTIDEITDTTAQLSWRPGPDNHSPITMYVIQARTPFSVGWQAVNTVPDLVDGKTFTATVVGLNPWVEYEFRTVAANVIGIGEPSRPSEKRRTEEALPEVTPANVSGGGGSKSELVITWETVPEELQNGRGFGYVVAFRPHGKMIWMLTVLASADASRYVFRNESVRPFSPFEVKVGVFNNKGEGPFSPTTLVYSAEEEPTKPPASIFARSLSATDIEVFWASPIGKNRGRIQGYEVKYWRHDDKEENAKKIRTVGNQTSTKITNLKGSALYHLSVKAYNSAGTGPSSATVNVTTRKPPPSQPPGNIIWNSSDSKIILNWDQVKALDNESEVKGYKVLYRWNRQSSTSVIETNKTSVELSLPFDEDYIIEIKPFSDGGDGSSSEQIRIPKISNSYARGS

T5: human CNTN4-rabbit Fc (human; rabbit, UniProt Q8IWV2 19-1000, limits assumed)
T5 construct: not shown: rabbit Fc
T5 sequence (looked up): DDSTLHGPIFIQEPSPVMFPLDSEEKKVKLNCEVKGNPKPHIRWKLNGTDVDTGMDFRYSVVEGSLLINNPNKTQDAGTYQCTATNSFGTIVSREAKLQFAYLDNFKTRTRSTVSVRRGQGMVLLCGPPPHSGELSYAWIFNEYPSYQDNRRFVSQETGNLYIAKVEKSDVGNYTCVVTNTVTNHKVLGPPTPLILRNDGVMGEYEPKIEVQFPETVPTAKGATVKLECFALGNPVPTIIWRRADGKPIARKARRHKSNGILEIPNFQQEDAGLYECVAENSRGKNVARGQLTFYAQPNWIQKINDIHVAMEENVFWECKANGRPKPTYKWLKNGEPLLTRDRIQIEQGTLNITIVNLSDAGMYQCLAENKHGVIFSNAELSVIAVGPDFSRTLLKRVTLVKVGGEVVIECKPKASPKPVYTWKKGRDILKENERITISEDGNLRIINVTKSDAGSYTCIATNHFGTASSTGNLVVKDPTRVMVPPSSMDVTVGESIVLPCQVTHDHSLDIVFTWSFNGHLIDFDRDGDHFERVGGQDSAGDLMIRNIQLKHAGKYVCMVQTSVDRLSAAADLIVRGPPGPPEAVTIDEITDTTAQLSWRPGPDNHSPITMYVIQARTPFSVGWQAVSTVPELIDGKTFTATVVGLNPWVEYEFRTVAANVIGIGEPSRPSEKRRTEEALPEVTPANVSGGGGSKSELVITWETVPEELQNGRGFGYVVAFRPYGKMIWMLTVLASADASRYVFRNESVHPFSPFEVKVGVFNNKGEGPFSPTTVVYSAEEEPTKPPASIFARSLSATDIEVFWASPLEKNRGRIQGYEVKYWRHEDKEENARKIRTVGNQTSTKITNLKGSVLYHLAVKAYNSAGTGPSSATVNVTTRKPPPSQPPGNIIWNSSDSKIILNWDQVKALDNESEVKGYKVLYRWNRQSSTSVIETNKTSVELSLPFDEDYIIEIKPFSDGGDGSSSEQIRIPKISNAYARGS


Columns and labels:
[1] = biological target: T1, human CNTN4-10xHis; assay: ELISA, plate coated with CNTN4-10xHis, anti-human Fc-HRP
Procedure: (§1) The LAH2, L1H2, and L2H2 antibodies prepared in Example 3.1 were subjected to an ELISA test together with A-01. An ELISA plate was coated with 200 ng of antigens (human CNTN4-10xHis or mouse CNTN4-10xHis). For antibody binding, antibodies were serially diluted from a maximum of 1 μM to 0.0001 nM, thereby binding to the antigen. Anti-human Fc-HRP was used as a secondary antibody for antibody detection. Color was developed using ABTS, which is a color developing reagent, and the absorbance at 405 nm was measured.

[2] = biological target: T2, mouse CNTN4-10xHis; assay: as above
Procedure: as §1

[3] = biological target: T3, human CNTN4 antigen expressed on the cell membrane of 293FT cells (human); assay: FACS, 293FT cells transfected with human CNTN4, 40 ug/mL, anti-hCk-PE
[4] = biological target: T4, mouse CNTN4-rabbit Fc; assay: ELISA, plate coated with antigen-rabbit Fc, anti-human kappa-HRP
[5] = biological target: T5, human CNTN4-rabbit Fc; assay: as above

EC50 [1] [nM]	EC50 [2] [nM]	Shift % [3] [%]	EC50 [4] [nM]	EC50 [5] [nM]	Binder
0.017	0.017				anti-CNTN4 humanized antibody LAH2 (antibody, V domains shown, in the form of IgG4) VH: EVQLLESEGGLVQPGGSLRLSCAASGFTFSSFNMFWVRQAPGKGLEWVAEISGGGGSTWYAPAVKGRATISRDNSKNTVYLQMNSLRAEDTAVYYCAKSADTWSYGAATIDAWGQGTLVTVSS VL: ALTQPSSVSANLGETVKITCSGSSGSYGWYQQKSPGSAPVTLIYDNTNRPSDIPSRFSGSGSGSTGTLTITGVRAEDEAVYYCGGYDGSTDVFGAGTTLTVL
		16.1	0.72	1.16	anti-CNTN4 scFv-hCk S132 (scFv, part only; not given: linker and kappa constant region, V domains shown, not shown: another chain or arm of the molecule; a dimerising Fc or GST; small tags and cut ends) VL: ALTQPSSVSANPGETVKITCSGGGSSTYYGWYQQKSPGSAPVTVIYNNNNRPSDIPSRFSGSGSGSTGTLTITGVRAEDEAVYYCGGYDGSTDVFGAGTTLTVL VH: AVTLDESGGGLQTPGGALSLVCKASGFTFSSFNMFWVRQAPGKGLEYVAEISGGGGSTWYAPAVKGRATISRDNGQSTVRLQLNNLRAEDTGTYYCAKSADTWSYGAATIDAWGHGTEVIVSS
		18.2	0.71	1.06	anti-CNTN4 scFv-hCk S135 (scFv, part only; not given: linker and kappa constant region, V domains shown, not shown: another chain or arm of the molecule; a dimerising Fc or GST; small tags and cut ends) VL: ALTQPSSVSANPGETVKITCSGGGSSSYYGWYQQKSPGSAPVTVIYYNNRPSDIPSRFSGSGSGSTGTLTITGVRAEDEAVYYCGGYDGSTDVFGAGTTLTVL VH: AVTLDESEGGLQTPGGALSLVCKASGFTFSSFNMFWVRQAPGKGLEYVAEISGGGGSTWYAPAVKGRATISRDNGQSTVRLQLNNLRAEDTGTYYCAKSADTWSYGAATIDAWGHGTEVIVSS
